Test results from patent US20220324953A1 (JIANGSU HENGRUI MEDICINE, published 2022).
Changes are numbered by the printed parent chain.

T1: human CTGF (antigen of the Biacore assays) (human, UniProt P29279 27-349)
T1 construct: also called antigen human CTGF; human CTGF protein
T1 sequence (looked up): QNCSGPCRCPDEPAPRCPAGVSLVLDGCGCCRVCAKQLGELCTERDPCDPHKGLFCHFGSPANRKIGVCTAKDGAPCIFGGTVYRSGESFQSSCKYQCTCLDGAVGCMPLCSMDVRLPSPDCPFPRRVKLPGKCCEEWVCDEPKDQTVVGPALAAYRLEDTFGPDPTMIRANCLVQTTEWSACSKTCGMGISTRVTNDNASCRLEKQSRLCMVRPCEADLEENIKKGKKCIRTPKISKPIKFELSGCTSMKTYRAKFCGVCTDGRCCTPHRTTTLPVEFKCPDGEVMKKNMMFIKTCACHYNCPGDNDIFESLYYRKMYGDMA

T2: Mouse CTGF protein-His tag (mouse, UniProt P29268 26-348)
T2 construct: C-terminal His tag; also called mouse CTGF-his protein; mouse CTGF fusion protein
T2 sequence: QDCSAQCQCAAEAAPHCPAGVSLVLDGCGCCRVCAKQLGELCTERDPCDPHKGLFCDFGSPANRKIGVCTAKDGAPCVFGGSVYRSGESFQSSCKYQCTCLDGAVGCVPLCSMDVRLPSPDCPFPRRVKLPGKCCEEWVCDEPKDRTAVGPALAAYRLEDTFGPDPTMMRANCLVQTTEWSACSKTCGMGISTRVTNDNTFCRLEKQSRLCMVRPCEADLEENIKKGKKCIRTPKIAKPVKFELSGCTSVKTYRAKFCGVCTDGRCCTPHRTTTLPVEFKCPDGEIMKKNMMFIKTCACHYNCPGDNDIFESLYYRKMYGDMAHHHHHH

T3: mouse CTGF (antigen of the Biacore assay) (mouse, UniProt P29268 26-348)
T3 construct: also called mouse CTGF protein
T3 sequence (looked up): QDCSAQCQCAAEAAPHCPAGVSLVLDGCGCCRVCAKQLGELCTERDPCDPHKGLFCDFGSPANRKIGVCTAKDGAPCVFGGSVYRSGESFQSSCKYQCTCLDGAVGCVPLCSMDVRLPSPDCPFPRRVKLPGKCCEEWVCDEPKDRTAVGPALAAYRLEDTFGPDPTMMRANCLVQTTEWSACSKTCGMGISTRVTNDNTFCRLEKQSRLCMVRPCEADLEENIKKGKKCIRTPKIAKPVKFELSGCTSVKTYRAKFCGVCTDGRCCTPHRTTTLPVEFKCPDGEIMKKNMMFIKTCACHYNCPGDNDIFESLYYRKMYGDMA

B1: Hu164-67wl (antibody, human IgG1, lambda)
heavy: not shown
light: ETVVTQEPSLTVSPGGTVTLTCRSSIGAVTTSNYANWVQQKPGQAFRGLIGGTSNRAPWTPARFSGSLLGGKAALTLSGVQPEDEAEYYCALWYSTHYVFGGGTKLTVLGQPKANPTVTLFPPSSEELQANKATLVCLISDFYPGAVTVAWKADGSPVKAGVETTKPSKQSNNKYAASSYLSLTPEQWKSHRSYSCQVTHEGSTVEKTVAPTEC
B2: Hu147-32wk (antibody, human IgG1, kappa, V domains shown)
VH: EVQLVESGGGLVQPGGSLRLSCAASGFSFNTYAMNWVRQAPGKGLEWVARIRTKSNNYATYYADSVKDRFTISRDDSESSLYLQMNSLKTEDTAVYYCVETGFAYWDQGTLVTVSS
VL: EIVLTQSPATLSLSPGERATLSCSASSSVSYMHWFQQKPGQSPKLLIYSTSNLASGIPARFSGSGSGTDYTLTISSLEPEDFAVYYCQQRSSYPLTFGQGTKLEIKR
B3: Hu147-12wk (antibody, human IgG1, kappa, V domains shown)
VH: B2 VH with S28T, N30S, A49G, E78K, S79N
VL: B2 VL
B4: Hu147-33wk (antibody, human IgG1, kappa, V domains shown)
VH: B2 VH
VL: B2 VL with L46W, I57V

Target: T1, human CTGF (antigen of the Biacore …)
Experiment: Biacore, CTGF immobilised, antibody 150 µg/ml then 50 nM TGF-β1 (competitor TGF-β1)
Protocol: First, the antigen human CTGF was immobilized onto a CMS biosensor chip (Cat. # BR-1005-30, GE) by amino coupling, with an immobilization level of 1500 RU, and then a high concentration of CTGF antibody (150 μg/ml) was allowed to flow through the surface of the chip for 150 s; 50 nM TGF-β1 protein was injected for 120 s, and the reaction signals were detected in real time with the Biacore T200 instrument to generate a binding and dissociation curve. After the dissociation was completed in each of the experimental cycles, the biosensor chip was washed and regenerated with regeneration buffer.
The resulting experimental data were statistically analyzed with GE Biacore T200 Evaluation version 3.0 software.

Point of comparison: B2, “Function-blocking percentage (%)” value 55.2%. Against it:
- B1 — higher, 55.5%
- B3 — lower, 51.6%
- B4 — higher, 57.3%

Target: T2, Mouse CTGF protein-His tag
Experiment: ELISA, plate coated with mouse CTGF-his
Protocol: The binding activity of anti-mouse CTGF antibody to mouse CTGF protein was tested by ELISA assay. A 96-well microtiter plate was directly coated with the mouse CTGF fusion protein. The signal strength upon the addition of the antibody was used to determine the binding activity of the antibody to mouse CTGF. The specific experimental procedures were as follows:
The mouse CTGF-his protein was diluted with PBS, pH 7.4 (Shanghai Yuanpei, Cat No. B320) buffer to a concentration of 0.5 μg/ml, added into the 96-well microtiter plate (Corning, Cat No. CLS3590-100EA) at 50 μl/well, and incubated in an incubator at 37° C. for 2 hours. The liquid was removed, 250 μl/well blocking solution (5% skim milk (BD skim milk, Cat No. 232100) diluted in PBS) was added, and incubated in an incubator at 37° C. for 3 hours or at 4° C. overnight (16-18 hours) for blocking. After the blocking was finished, the blocking solution was removed, the plate was washed for 3 times with PBST buffer (PBS containing 0.1% Tween-20, pH 7.4), 50 μl/well of various concentrations of each of the test antibodies (antibodies purified from hybridoma or humanized antibodies) diluted with sample dilution solution were added, and incubated in an incubator at 37° C. for 1 hours. After the incubation was finished, the plate was washed for 3 times with PBST, 50 μl/well of HRP-labeled goat anti-mouse secondary antibody (Jackson Immuno Research, Cat No. 115-035-003) or goat anti-human secondary antibody (Jackson Immuno Research, Cat No. 109-035-003) diluted with sample dilution solution was added, and incubated at 37° C. for 1 hour. The plate was washed for 5 times with PBST, 50 μl/well of TMB chromogenic substrate (KPL, Cat No. 52-00-03) was added, incubated at room temperature for 5-10min, and 50 μl/well of 1 M H₂SO₄ was added to stop the reaction. The absorbance value was read by a microplate reader (Molecular Devices, VERSA max) at a wavelength of 450 nm, and the data was analyzed with GraphPad Prism 5. The binding of CTGF antibody to mouse CTGF protein was calculated as EC50 value.

Point of comparison: B4, EC50 0.258 nM. Against it:
- B1 — 5.3-fold lower, 0.049 nM
- B2 — within 1.5-fold, 0.349 nM
- B3 — within 1.5-fold, 0.249 nM

Target: T3, mouse CTGF (antigen of the Biacore …)
Experiment: Biacore, antibody captured on Protein A, mouse CTGF in flow, 1:1 fit
Outline: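 Antibodies captured on a Protein A chip, with human or mouse CTGF flowed over in HBS-EP running buffer; association and dissociation recorded in real time. Surface regenerated with glycine-HCl pH 1.5 between cycles; kinetics fitted to a 1:1 model.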

Point of comparison: B2, Kd 2.49 nM. Against it:
- B1 — 140-fold lower, 0.0184 nM
- B3 — within 1.5-fold, 3.09 nM
- B4 — within 1.5-fold, 1.93 nM

Point of comparison: B2, koff 0.343 s⁻¹. Against it:
- B1 — 290-fold lower, 0.00117 s⁻¹
- B3 — 3-fold lower, 0.116 s⁻¹
- B4 — 2-fold lower, 0.174 s⁻¹

Point of comparison: B1, kon 6.36e+07 M⁻¹ s⁻¹. Against it:
- B2 — 2.2-fold higher, 1.37e+08 M⁻¹ s⁻¹
- B3 — 1.7-fold lower, 3.75e+07 M⁻¹ s⁻¹
- B4 — within 1.5-fold, 9.01e+07 M⁻¹ s⁻¹
